Target: the molecule itself
Assay: SEC

B1: PikAIV TE wild type (thioesterase domain of the pikromycin polyketide synthase PikAIV) (domain or fragment, Streptomyces venezuelae ATCC 15439, UniProt Q9ZGI2 1057-1346, looked up)
chain: AGMFRALFRQAVEDDRYGEFLDVLAEASAFRPQFASPEACSERLDPVLLAGGPTDRAEGRAVLVGCTGTAANGGPHEFLRLSTSFQEERDFLAVPLPGYGTGTGTGTALLPADLDTALDAQARAILRAAGDAPVVLLGHSGGALLAHELAFRLERAHGAPPAGIVLVDPYPPGHQEPIEVWSRQLGEGLFAGELEPMSDARLLAMGRYARFLAGPRPGRSSAPVLLVRASEPLGDWQEERGDWRAHWDLPHTVADVPGDHFTMMRDHAPAVAEAVLSWLDAIEGIEGAGK
stoichiometry N: 2

Reference: paper PMC11804868 (ACS catalysis, 2024)
